The experiment has as its target actin filament (UniProt P68135). As to the kind of experiment: fluorescence microscopy in a microfluidics chamber.

As usually defined, the Kd is the concentration at which binding is half-saturated. Lower therefore signals a tighter complex. In turn, “fascin (from UniProt Q16658 1-493) (natural protein)” gave a Kd of 0.075 µM. This lies in the double-digit nanomolar range.

Values taken from paper PMC7086397.
